The target of experiment [1] is human CD33 (human) (UniProt P20138). The experiment in a line: flow cytometry, human primary dendritic cells. A general note: Flow cytometry measures light scatter and fluorescence of single cells or particles in a stream.
Experiment [2] shares this target. The experiment in a line: cell-based or functional assay.
Experiment [3] shares this target. The experiment in a line: flow cytometry, human primary T cells.
For experiment [4] the target is unchanged. The experiment is described as follows: flow cytometry, human primary macrophages.
Experiment [5] has the same target. The experiment in a line: flow cytometry, human primary monocytes.

human CD33 (human), sequence (P20138 18-364): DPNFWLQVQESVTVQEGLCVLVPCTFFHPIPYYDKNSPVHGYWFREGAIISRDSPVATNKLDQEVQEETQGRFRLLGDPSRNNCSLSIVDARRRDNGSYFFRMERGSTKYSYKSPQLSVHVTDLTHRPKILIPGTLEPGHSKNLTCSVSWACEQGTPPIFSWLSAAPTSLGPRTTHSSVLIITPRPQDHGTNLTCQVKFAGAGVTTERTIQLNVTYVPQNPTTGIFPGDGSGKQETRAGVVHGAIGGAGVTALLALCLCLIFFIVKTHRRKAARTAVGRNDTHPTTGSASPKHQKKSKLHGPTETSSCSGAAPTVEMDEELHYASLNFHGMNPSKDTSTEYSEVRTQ

B1: C-51 (antibody, V domains shown)
VH: QLQLQESGPGLVKPSETLSLTCTVSGGSISSSSYYWGWIRQPPGKGLEWIGSIYYSGSTYYNPSLKSRVTISVDTSKNQFSLKLSSVTAADTAVYYCARGAPHDYGGGVGWFDPWGQGTTVTVSS
VL: DIQMTQSPSSVSASVGDRVTITCRASQGISSWLAWYQQKPGKAPKLLIYAASNLQSGVPSRFSGSGSGTDFTLTISSLQPEDFATYYCQQSRVFPWTFGGGTKVEIK
In the experiment with human CD33 (human) [1], B1 registered a DC MFI of 496. In the experiment with human CD33 (human) [2], this molecule yielded a Percent CD33 Surface Expression, DC % CD33 of 86% and a Percent CD33 Surface Expression, Monocyte % CD33 of 88%. The molecule further came in with a T cell MFI with human CD33 (human) [3] of 29.3. In the experiment with human CD33 (human) [4], this molecule displayed a Macrophage MFI of 656. Besides, in the experiment with human CD33 (human) [5], the Monocyte MFI came to 126.

The values are drawn from US20220281976A1.
